Source: IntAct's records for PubMed 23813973

Target: dnm1l_human DNM1L (UniProt O00429)
Sequence (O00429 whole entry): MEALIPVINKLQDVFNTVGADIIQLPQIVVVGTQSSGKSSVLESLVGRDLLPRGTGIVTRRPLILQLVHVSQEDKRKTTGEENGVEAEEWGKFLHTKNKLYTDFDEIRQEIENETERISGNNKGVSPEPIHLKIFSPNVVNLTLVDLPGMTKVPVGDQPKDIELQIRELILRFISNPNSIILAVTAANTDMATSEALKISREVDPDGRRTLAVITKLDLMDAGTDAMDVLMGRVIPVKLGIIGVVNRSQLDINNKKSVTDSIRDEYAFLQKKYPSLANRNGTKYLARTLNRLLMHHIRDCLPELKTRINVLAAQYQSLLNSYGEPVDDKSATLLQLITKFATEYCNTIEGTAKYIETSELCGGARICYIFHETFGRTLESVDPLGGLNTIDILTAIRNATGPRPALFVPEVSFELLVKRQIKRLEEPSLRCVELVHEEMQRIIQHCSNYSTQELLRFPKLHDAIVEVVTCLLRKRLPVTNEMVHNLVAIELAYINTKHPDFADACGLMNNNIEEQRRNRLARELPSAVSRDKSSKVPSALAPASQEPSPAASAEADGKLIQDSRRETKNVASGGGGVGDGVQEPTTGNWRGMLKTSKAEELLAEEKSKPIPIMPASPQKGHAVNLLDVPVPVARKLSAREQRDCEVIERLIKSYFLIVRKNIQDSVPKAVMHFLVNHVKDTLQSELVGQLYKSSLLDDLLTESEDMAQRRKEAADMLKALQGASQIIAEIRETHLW

Leucine-rich repeat serine/threonine-protein kinase 2 (Homo sapiens), Q5S007 K1906A;D1994A;D2017A
effect of a mutation on the interaction: decreasing interaction
